Assay results from FireProtDB (doi:10.1016/j.ijbiomac.2020.03.166).
Values joined by “and” are separate entries in the source; they are usually repeats but may differ in a detail not shown here. Identical values can stand only once.

Conditions: Leishmania major, pH 7.5, potassium phosphate, NaCl, transition: 2, whole UniProt chain shown
[1] = GdnHCl, fluorescence emission maxima
[2] = Urea, fluorescence emission maxima

B1: Peptidyl-prolyl cis-trans isomerase wild type, Q4QII4 (protein)
chain: MPTSSWRAEHLLIKHSGSRNPVSRRTGQPTTISYEEAVTELQKWCQSINDGKVTFEEAARQRSDCSSYARGGDLGVFGPGEMMKPFEDATKSLEVGQVSGIVVTDSGVHIIKRIA
GdnHCl, CD
  denaturant m value: 3.32 kcal/mol/M
  denaturant midpoint (higher = more stable): 0.98 M
  unfolding free energy: 3.27 kcal/mol
GdnHCl, anisotropy
  denaturant m value: 3.87 kcal/mol/M
  denaturant midpoint (higher = more stable): 1.16 M
  unfolding free energy: 4.51 kcal/mol
[1]
  denaturant m value: 4.3 kcal/mol/M
  denaturant midpoint (higher = more stable): 1.1 M
  unfolding free energy: 4.74 kcal/mol
GdnHCl, fluorescence intensity
  denaturant m value: 4.61 kcal/mol/M
  denaturant midpoint (higher = more stable): 0.97 M
  unfolding free energy: 4.48 kcal/mol
Thermal, DSC
  unfolding enthalpy (calorimetric): 36.6 kcal/mol and 55.1 kcal/mol
Urea, CD
  denaturant m value: 1.38 kcal/mol/M
  denaturant midpoint (higher = more stable): 4.12 M
  unfolding free energy: 5.69 kcal/mol
Urea, anisotropy
  denaturant m value: 1.2 kcal/mol/M
  denaturant midpoint (higher = more stable): 4.15 M
  unfolding free energy: 4.99 kcal/mol
[2]
  denaturant m value: 1.28 kcal/mol/M
  denaturant midpoint (higher = more stable): 4.78 M
  unfolding free energy: 5.12 kcal/mol
Urea, fluorescence intensity
  denaturant m value: 1.39 kcal/mol/M
  denaturant midpoint (higher = more stable): 3.53 M
  unfolding free energy: 4.91 kcal/mol
